The results in this text go back to the nanobody polyreactivity screen of Harvey et al. (2022).

A short description of the series: yeast display, Sf9 membrane polyspecificity reagent, FACS + sequencing; frameworks hold sequencing errors. An outline of the steps:
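In a synthetic yeast display library (Saccharomyces cerevisiae BJ5465), nanobody expression was induced with galactose for 36–48 hours. FACS gates were set low and high (top ~1%) using anti-HA fluorescence for expression and streptavidin fluorescence for binding of the Sf9 membrane reagent. Each polyreactivity label is drawn from the gate of origin.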
Take “QVQLVESGGGLVQAGGSLRLSCAASGRTFGWYAMGWYRQAPGKEREFVASINTIGGSTYYADSVKGRFTISRDNAKNTVYLQMNSLKPEDTAVYYCAAVGYVIPYDSVGYTTTDYYWGQGTQVTVSS”: the “polyreactivity (PSR sort gate)” value is reported as “low polyreactivity”.

Turning to “QVQLVESGGGLVQAGGSLRLSCAASGSIFGAYAMGWYRQAPGKERELVAAITWRGGSTYYADSVKGRFTISRDNAKNTVYLQMNSLKPEDTAVYYCAARYLRPDGDALTRYGYWGQGTQVTVSS”, the “polyreactivity (PSR sort gate)” value is given as “high polyreactivity”.

Take “QVQLVESGGGLVQAGGSLRLSCAASGSTFVGNAMGWYRHAPGKEREMVATISNSGGRTYYADSVKGRFTISRDNAKNTVYLQLNSLKPEDTEVYYCAADHPAFGPGYSFDYWGQGTQVTVSS”: the “polyreactivity (PSR sort gate)” value is “low polyreactivity”.

Turning to “QVQLVESGGGLVQAGGSLSLSCAASGSTFPKYAMGWYRQAPGKERELVAAISGSGGSTYYADSVKGRFTISRDNAKNTVYLQMNSLKPEDTAVYYSAVAWNVRGVGARQRDIYGYWGQGTQVTVST”, the “polyreactivity (PSR sort gate)” value is “high polyreactivity”.

Take “QVQLVESGGGLVQAVGSHRLSCAASGFIFTSYAMGCYRQAPGKERELVAAITRSGGRTYYADSVKGRFTISRDNAKNTVYLQMNSLKPEDTAVYYCAAVTFYQSPARGYWGQGTQVTVSS”: the “polyreactivity (PSR sort gate)” value is listed as “high polyreactivity”.

Consider “QVQLVESGGGLVQAGVSLRLICAASGRTFGRSVMGWYRQAPGKERELVAAITSSSSSTYADSVKGRFTISRDNAKNTVYVQMNSLKPEDTEVYYCNKRYPSRHLPEYDYWGQGTQVSVSS”, for which the “polyreactivity (PSR sort gate)” value is given as “high polyreactivity”.

Take “QVQLVDSGGGLVQAGGSLRLSCAASGSIVVLYAMGWYRQAPGKERELVAAITSGASTNYADSVKGRFTISRDNAKNTVYLQMNSLKPEDTAVYYCHTGSRLDRVDSWGQGTQVTVSS”: the “polyreactivity (PSR sort gate)” value was “low polyreactivity”.

Turning to “QVQLVESGGGLVQAGGSLRLSCAASGSTIDPYGMGWYRQAPGKERELVAAITSSGRTNYADSVKGRFTISRDNAKNTVYLQMNSLKPEDTAVYYCNVQTYVELRLDYWGQGTQVTVSS”, the “polyreactivity (PSR sort gate)” value was “low polyreactivity”.

On to “QVQLEESGGGLVQAGGSLRLSCAASGSTFPPYEMGWYRQAPGKERELVAAISGSGGSTNYADSVKGRFTISRDHAKNTVYLQMNSLKPEDNAVYRDYWGQGTQVTVSS”, for which the “polyreactivity (PSR sort gate)” value is given as “low polyreactivity”.

“QVQLVESGGGLVQAGGSLRLSCAASGRTFKSYAMGWNRQAPGQERELVATITRDGRTNYADSVKGRFTISRDNAKNTVYLQLNSLKPEDTAVYYCNADSRYRYDYWGQGTQVTVSS”: the “polyreactivity (PSR sort gate)” value is “low polyreactivity”.

Take “QVQLVESGGCLVQAGGSLRLMCAASGSTFRVNAMGWSRQAPGKERELVAAITRGGSTNYADSVKGRFTISRDNAKNTVYLQMNSLKPEDTAVYYCNAGDDFGRYVPFSWGRFDYWGQGTQVTESS”: the “polyreactivity (PSR sort gate)” value is recorded as “low polyreactivity”.

Turning to “QVQLVESGGGLVQAGGSLRLSCAASGGIFAYYAMGWYRQAPGKERELVAAITSRGGRTYYADSVKGRFTISRDNAKNTVYFQMNSLKPEDTEVYYCNAERFWPWDYDYWGQGTQVTVSS”, the “polyreactivity (PSR sort gate)” value is reported as “high polyreactivity”.

Take “QVQLVESGVGLVQAGGSLRLSCASSGFIFNYNTMGWYRQAPGKETELVAAISSSGGSTYYADSVKGRFTISRDNAKNTVYLQMNSLKPEDTAVYYCGAGANAQRVPNGDYWGQGTQVTVSS”: the “polyreactivity (PSR sort gate)” value is “low polyreactivity”.

For “QVQLVESGGGLVQAGGSLRLSCAASGFTFDDYTMGWYRQAPGKEREFVAAISSSGGSTYYADSVKGRFTISRDNAKNTVYLQMNSLKPEDTAVYYCAADARYYDYYEYDYWGQGTQVTVSS”, the “polyreactivity (PSR sort gate)” value is given as “high polyreactivity”.

As for “QVQLVESGGGLVQEGGSLRLICAASGGIFIYNAMGWYRQEPGKEREFVAAINISGGNTYYADSVKGRFTISRDNAKNTVYLQMNSLKPEDTAVYYCAARYASSWWIRYYYWGQGTQVSVSS”, the “polyreactivity (PSR sort gate)” value is given as “high polyreactivity”.

Consider “QVQLVESGGGLVQAGGSLRLSCAASGIIFGGYAMGWYRQAPGKERELVASISYSGGSTYYADSVKGRFTISRDNAKNTVYLQMNSLKPEDTAVYYCAAGYPRTPAAGYYWGQGTQVTVSS”, for which the “polyreactivity (PSR sort gate)” value is on record as “high polyreactivity”.

On to “QVQLVESGGGLVQAGGSLRLSCAASGRTFHRYVMGWYRQAPGKERELVAAITRSGGITYYADSVKGRFTISRDNAKNTVYLQMNSLKPEDTAVYYCAKDDQTASGFDYWGQGTQVTVSS”, for which the “polyreactivity (PSR sort gate)” value is “low polyreactivity”.

As to “QVQLVESGGGLVQAGGRLRISCAASGFTFDLYAMGWYRQAPGKERELVAAISWSGGSTRYADSVKGRFTISRDNAKNTVYLQMNSLKPEDTAVSYCARQPRLYFKGKLYGYWGQGTQVTVSS”, the “polyreactivity (PSR sort gate)” value was “high polyreactivity”.

For “QVQLVESGGGLVQAGGILRLSCAASGLIFNYYAMGWYRQAPGKERELVADITRGGSTNYADSVKGRFTISRDNANFTVYVQMNSMKPEDSAVYYCAARVRGWWYRYDYWGHGTQVTVSS”, the “polyreactivity (PSR sort gate)” value is recorded as “high polyreactivity”.

Turning to “QVQLVESGGGLVQAGGSLRLSCAASGSIFPWYAMGWYRQEPGKERELVAAISKSGAGTYYADSVKGRFTISRDTAKNTVYLQMNSLKPEDTAVYYCNARWRSNRAARYDFWGQGTQVTVSS”, the “polyreactivity (PSR sort gate)” value is listed as “high polyreactivity”.

“QVQLVESGGGLVQAGGSLRLSCAASGFIFTQNGMGWYRQAPGKERELVAAISWSAGGTYYADSVKGRFTISRDNANNTVYLQMNSLKQEDTAVYYCNAELYFYWNVWVGYDYWGQGTQVTVSS”: the “polyreactivity (PSR sort gate)” value is reported as “low polyreactivity”.

Consider “QVQLVESGGGLVQAGGSLRLSCAASGITFGSYAMGWYRQAPGKERELVAAINSRGSRTYYADSVKVRFTISRDNAKNTVYLQMNSLKPEDTAVYYCAASNSHVGPNDYWGQGTQVTVSS”, for which the “polyreactivity (PSR sort gate)” value is “high polyreactivity”.

With “QVQLVESVGGLVQAGGSLRLSCAASGRIYVYVMGWYIQSPGKERELVAAITSGGSTYYADSVKGRFTISRDNAKNTDYLQMNSLKPEDTAVYYCAADVNGGYDYYYFVSIVYYWGQGTQVTVSS”, the “polyreactivity (PSR sort gate)” value is reported as “low polyreactivity”.

On to “QVQLVESGGGLVQAGGSLRLSCAASGSIFFSYAMGWYRQAPGKERELVAAITSSVDSTYYADSVKGRFTISRDNAKNTVYLQMNSLKPEDTAVYYCDARYRSGYYRYDYWGQGTQVTVSS”, for which the “polyreactivity (PSR sort gate)” value is reported as “low polyreactivity”.

“QVQLVESVGVLVQAGGSLHLSCAASGSTFRYNAIGWYRQAPGKEREVVAAISKRGGSTYYADSVKGRFTISRDNAKNTVYLQMNSLKPEDTAVYYCAASYPSWSTRGESDYWGQGTQVTVSS”: the “polyreactivity (PSR sort gate)” value is on record as “high polyreactivity”.

Take “QVQLVESGGGLVQAGGSLRLSCAASGFTIDSYAMGWYRQAPGTERELVAAISYRGGTTYYADSVKGRFTISRDNAKNTVYLQMNSLKPEDTAVYYCNRMWKYGFNYWGQGTQVTVSA”: the “polyreactivity (PSR sort gate)” value was “high polyreactivity”.

Consider “QVQLVESGGGLVQAGGSLRLSCAASGSIFKINAMGCYTPAPGKERELVATITRSTGTTYYADSVKGRFTNSRDTAKNSVYLQMNSLKPEDTAVYYCATDGDSNKLDYWGQGTQVTVSS”, for which the “polyreactivity (PSR sort gate)” value is on record as “low polyreactivity”.

Regarding “QVQLVESGGGLVQAGGSLRLSCAASGRTFGPYAMGWYRQAPGKEREFVAAISYSGGSTYYADSVKGRFTISRDNAKNTVFLQMNSLKPEDTAVYYCAVDIDSNSGTRDYWGQGTQVTVSS”, the “polyreactivity (PSR sort gate)” value was “low polyreactivity”.

For “QVQLVESGGGVVQAGGSLRLSCAASGRISDVYVMGWYRQAPGKERELVAAITWSGGDTYYADSVKGRFTISRDNAKNTVYLQMNSLKPEDTAVYYCNADTGKWGGNGWYEFDYWGQGTQVTVSS”, the “polyreactivity (PSR sort gate)” value is “low polyreactivity”.

“QVQLVESGGGLVQAGGSLRLSCAASGRTYVVYAMGWYRQAPGKERELVARFRWRDVSTYYADSVKGRFTISRDNAKNTVYLQMNSLKPEDSAVYYCAARSYTGGGRLYYWGQGTQVTVSS”: the “polyreactivity (PSR sort gate)” value is “high polyreactivity”.

Regarding “QVQLVESGGGLVKAGGSLRISCAASGSIFTPYTMGWYRQAPGKERELVAAISSGDSTYYADSVKGRFTISRDNAKKTVYLQMNSLKPEDTAVYYCAADYRYDYDYWGQGTQVTVSS”, the “polyreactivity (PSR sort gate)” value is on record as “low polyreactivity”.

Turning to “QVQLVESGGGLVQAGGSLRLSCAASGRTFFWYAMGWYRQAPGKEREFVADINSRGTSTYADSVKGRFTISRDNAKNTVYLQMNSLKPDDTAVYYCAAYRGHLKRYYYWGQGTQVTVSS”, the “polyreactivity (PSR sort gate)” value was “high polyreactivity”.

As for “QVQLVESGGALLQAGGSLRLSCAASGRIFYHYAMGWYRQAPGKESELVAASTWSGVSTYYADSVKGRFTISRDNAKNTVDLQMNRLIPADTAVYYCATSSPYGVRRYSRGSWGQGTQVTVSS”, the “polyreactivity (PSR sort gate)” value is “high polyreactivity”.

For “QVQLVESRGGLVQAGGSLRLSCAASGRIIPSYMGWYRQAPGKQRELVARISNTGSTYYADSVKGRFTISRDNAKNTVYLQMNRLKPEDTAVYYCAAVYIFRVFSHPPYDYWGQGTQVTVST”, the “polyreactivity (PSR sort gate)” value is reported as “low polyreactivity”.

As to “QVQLVESGGGLVQAGGSLRLSCAASGSTLPVNAMGWYRQAPGKERELVAAINRDGSTNYADSVKRPFTFSRDNAKNTVYLQMNSLKQEDTAVYYCAADGFGYPGKRYDYWGQGTQVTVSS”, the “polyreactivity (PSR sort gate)” value is reported as “low polyreactivity”.

“QVQLVESGGGLVQAGGSLRLSCAASGSTFPVYTLGWYRQAPGKERELVAAISWRGTSTYADSVKGRFTISRDNGKNNVYLQMNRLIPEDTAVYYCAAGDTRGMDYWGQGTQVTVSS”: the “polyreactivity (PSR sort gate)” value is “high polyreactivity”.

On to “QGQLVESGGCLVQAGGSLRLSCAASGIIFWSYAMGWYRQAPGKERELVAAISRRGGSTSYADSVKGRFTISRDNAKTTVYLQMNSLKPEDTAVYYCAADRYFNPKSYSTEFDYWGQGTQVTVSS”, for which the “polyreactivity (PSR sort gate)” value is listed as “high polyreactivity”.

“QVQLVESGGGLVQAGGSLRLSCAASGRTFPYYAMGWYRQAPGKERELVAAISSSGGSTYYADSVKGRFTISRDNAKNTVNLQMNSLKPEDTAVYYCAARAPYSYSGYGYWGQGTQVTVSS”: the “polyreactivity (PSR sort gate)” value was “high polyreactivity”.

For “QVHLVESGGGLVQAGGSLRLSCAASGSIFYKYVMGWYRQAPGKERELVAAISRGGGSTYYADSVKGRFTISRDNAKNTVYLQMNSLKPEDTAVYYCNAVGRPRYGHGFDHWGQGTQVTVSS”, the “polyreactivity (PSR sort gate)” value is “high polyreactivity”.

As to “QVQLVESGGGLVQAGGSLRLSCAASGSTFGLNAMGWYRQAPGKERELVAAITRSDITNYADSVKGRFTISRDNAKNTVYLQMNSLKPEDTAVYYCNKTPDRHRRYFGYGYWGHGTQVTVSS”, the “polyreactivity (PSR sort gate)” value is recorded as “low polyreactivity”.

For “QVQLVESGGGLVQAGGSLRISCAASGFIIYGYVMGWYRQAPGKERELVAAINSSSGRTYYADSVKGRFTISRDNAKNTVYLQMNSLKPEDTAVYYCAAYYYCSYDGTPYDYWGQGTQVTVSS”, the “polyreactivity (PSR sort gate)” value is on record as “low polyreactivity”.
